Where a chain is given by its changes, count along the chain named. Numbers in names are those of the source. Read-outs that look alike come from different tables or passages of the source.
B1: MuJovi-1 (antibody, V domains shown)
VH: EVRLQQSGPDLIKPGASVKMSCKASGYTFTGYVMHWVKQRPGQGLEWIGFINPYNDDIQSNERFRGKATLTSDKSSTTAYMELSSLTSEDSAVYYCARGAGYNFDGAYRFFDFWGQGTTLTVSS
VL: DVVMTQSPLSLPVSLGDQASISCRSSQRLVHSNGNTYLHWYLQKPGQSPKLLIYRVSNRFPGVPDRFSGSGSGTDFTLKISRVEAEDLGIYFCSQSTHVPYTFGGGTKLEIK
B2: Mut5 (HuJovi-1 VH Y32F), human IgG1 (antibody, V domains shown)
VH: QVQLVQSGAEVKKPGASVKVSCKASGYTFTGFVMHWVRQAPGQGLEWMGFINPYNDDIQSNERFRGRVTMTRDTSISTAYMELSRLRSDDTAVYYCARGAGYNFDGAYRFFDFWGQGTMVTVSS
VL: B1 VL with V2I, S14T, L15P, D17E, Q18P, K50R, L88V, I90V, F92Y, G105Q
notes: as the VH of m1 with the stated change; positions in Kabat numbering; constant region of the human IgG1 heavy chain; as the light chain of m1; IgG1; source: ExpiCHO, transient transfection, purified (MabSelect SuRe)
B3: Mut6 (HuJovi-1 VH A96N), human IgG1 (antibody, V domains shown)
VH: B2 VH with F32Y, A100N
VL: B1 VL with V2I, S14T, L15P, D17E, Q18P, K50R, L88V, I90V, F92Y, G105Q
notes: as for B2
B4: RFN (Mut4; HuJovi-1 VH T28R, Y32F, A96N), human IgG1 (antibody, V domains shown)
VH: B2 VH with T28R, A100N
VL: B1 VL with V2I, S14T, L15P, D17E, Q18P, K50R, L88V, I90V, F92Y, G105Q
notes: as the VH of m1 with the stated changes; positions in Kabat numbering; constant region of the human IgG1 heavy chain; as the light chain of m1; IgG1 in the SPR; also called Arg28/Phe32/Asn96; source: ExpiCHO, transient transfection, purified (MabSelect SuRe)
B5: Mut7 (HuJovi-1 VH T28K, A96N), human IgG1 (antibody, V domains shown)
VH: B2 VH with T28K, F32Y, A100N
VL: B1 VL with V2I, S14T, L15P, D17E, Q18P, K50R, L88V, I90V, F92Y, G105Q
notes: as the VH of m1 with the stated changes; positions in Kabat numbering; constant region of the human IgG1 heavy chain; as the light chain of m1; IgG1; source: ExpiCHO, transient transfection, purified (MabSelect SuRe)
B6: Mut1 (HuJovi-1 VH T28K), human IgG1 (antibody, V domains shown)
VH: B2 VH with T28K, F32Y
VL: B1 VL with V2I, S14T, L15P, D17E, Q18P, K50R, L88V, I90V, F92Y, G105Q
notes: as the VH of m1 with the stated change; positions in Kabat numbering; constant region of the human IgG1 heavy chain; as the light chain of m1; IgG1; also called Lys28 mutant; Thr28Lys; source: ExpiCHO, transient transfection, purified (MabSelect SuRe)
B7: Mut2 (HuJovi-1 VH T28K, Y32F), human IgG1 (antibody, V domains shown)
VH: B2 VH with T28K
VL: B1 VL with V2I, S14T, L15P, D17E, Q18P, K50R, L88V, I90V, F92Y, G105Q
notes: as the VH of m1 with the stated changes; positions in Kabat numbering; constant region of the human IgG1 heavy chain; as the light chain of m1; IgG1; also called Lys28/Phe32; Thr28Lys, Tyr32Phe double mutant; source: ExpiCHO, transient transfection, purified (MabSelect SuRe)
B8: HuJovi-1 scFv-Fc (scFv, V domains shown)
VH: B2 VH with F32Y
VL: B1 VL with V2I, S14T, L15P, D17E, Q18P, K50R, L88V, I90V, F92Y, G105Q
notes: scFv of HuJovi-1: VH and VL as in m1 (PDB 7AMP, 7AMQ); scFv-Fc with a murine IgG2a Fc; captured on a Protein A chip; source: ExpiCHO, transient transfection, purified (MabSelect SuRe)
B9: HuJovi-1 (humanized Jovi-1), human IgG1 (antibody, V domains shown)
VH: B2 VH with F32Y
VL: B1 VL with V2I, S14T, L15P, D17E, Q18P, K50R, L88V, I90V, F92Y, G105Q
notes: VH of HuJovi-1 (CDRs of Jovi-1 grafted on IGHV1-2*02); constant region of the human IgG1 heavy chain; whole light chain (CDRs of Jovi-1 grafted on IGKV2-29*02, kappa constant from the AbVec kappa vector); IgG1; The section on CDR grafting names HEK293T as host, the section on antibody expression ExpiCHO; also called aTRBC1; source: ExpiCHO, transient transfection, purified (MabSelect SuRe)
B10: KFN (Mut3; HuJovi-1 VH T28K, Y32F, A96N), human IgG1 (antibody, V domains shown)
VH: B2 VH with T28K, A100N
VL: B1 VL with V2I, S14T, L15P, D17E, Q18P, K50R, L88V, I90V, F92Y, G105Q
notes: VH of KFN: as the VH of m1 (PDB 7AMP, 7AMQ) with the stated changes, positions in Kabat numbering; constant region of the human IgG1 heavy chain; as the light chain of m1; IgG1; also called Lys28/Phe32/Asn96; aTRBC2; source: ExpiCHO, transient transfection, purified (MabSelect SuRe)
B11: KFN scFv-Fc (scFv, V domains shown)
VH: B2 VH with T28K, A100N
VL: B1 VL with V2I, S14T, L15P, D17E, Q18P, K50R, L88V, I90V, F92Y, G105Q
notes: scFv of KFN: VH and VL as in m6 (PDB 7AMS, 7AMR), that is the VH of m1 with the stated changes (Kabat numbering); scFv-Fc with a murine IgG2a Fc; captured on a Protein A chip; source: ExpiCHO, transient transfection, purified (MabSelect SuRe)

Legend:
[1] = biological target: T1, Recombinant, purified TRBC1 (soluble αβ TCR with the β-chain constant domain TRBC1), SPR analyte (Homo sapiens, HA1.7 TCR with TRBC1)
Target sequence in this assay (main, as listed by the source, chain 1 of 2): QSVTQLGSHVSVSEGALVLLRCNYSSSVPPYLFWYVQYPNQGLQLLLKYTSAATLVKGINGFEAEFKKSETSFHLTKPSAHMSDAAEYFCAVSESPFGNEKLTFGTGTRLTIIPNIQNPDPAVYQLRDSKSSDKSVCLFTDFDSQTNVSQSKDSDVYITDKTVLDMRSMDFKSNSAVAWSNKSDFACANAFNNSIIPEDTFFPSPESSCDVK
Target sequence in this assay (partner, as listed by the source, chain 2 of 2): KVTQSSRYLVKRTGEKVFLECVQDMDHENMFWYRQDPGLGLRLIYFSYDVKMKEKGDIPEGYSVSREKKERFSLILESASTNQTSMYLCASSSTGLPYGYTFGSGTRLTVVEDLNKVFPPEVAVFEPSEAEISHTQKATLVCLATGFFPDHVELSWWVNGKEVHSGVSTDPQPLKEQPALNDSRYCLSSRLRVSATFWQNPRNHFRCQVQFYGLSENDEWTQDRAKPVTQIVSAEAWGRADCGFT

[2] = biological target: T2, TCR with the TRBC1 β-chain constant domain, on cells (Homo sapiens, UniProt P01848;P01850)
Target sequence in this assay (P01848 whole entry, chain 1 of 2, the tested form may be a part): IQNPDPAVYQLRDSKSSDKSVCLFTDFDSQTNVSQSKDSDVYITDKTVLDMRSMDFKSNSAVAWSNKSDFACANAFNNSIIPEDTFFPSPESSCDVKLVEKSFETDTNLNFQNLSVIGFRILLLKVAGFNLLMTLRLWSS
Target sequence in this assay (P01850 whole entry, chain 2 of 2, the tested form may be a part): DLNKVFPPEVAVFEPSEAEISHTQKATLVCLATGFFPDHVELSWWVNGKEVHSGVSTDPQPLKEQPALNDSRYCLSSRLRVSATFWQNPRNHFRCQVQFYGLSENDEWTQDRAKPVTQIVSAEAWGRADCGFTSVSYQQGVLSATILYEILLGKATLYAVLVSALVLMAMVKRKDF

[3] = biological target: T1, Recombinant, purified TRBC1 (soluble αβ …); experiment: SPR; Biacore T200; antibody as human IgG1 captured with an anti-human capture kit on CM5 to 200 RU; TRBC1 or TRBC2 as analyte, 150 s contact, 300 s dissociation, 30 μl/min, 25 °C, HBS-P+ pH 7.4; 1:1 Langmuir model; conditions: both partners purified
[4] = biological target: T3, Recombinant, purified TRBC2 (soluble αβ TCR with the β-chain constant domain TRBC2), SPR analyte (Homo sapiens, HA1.7 TCR with TRBC2); experiment: as above; conditions: both partners purified
T3 construct: also called recombinant TRBC2; source: recombinant, purified

[5] = biological target: T1, Recombinant, purified TRBC1 (soluble αβ …); experiment: SPR; Biacore T200; scFv-Fc captured on a Series S Protein A chip to 50 RU; TRBC1 or TRBC2 as analyte, 150 s contact, 500 s dissociation, 30 μl/min, 25 °C, HBS-P+ pH 7.4; 1:1 Langmuir model; conditions: both partners purified
[6] = biological target: T2, TCR with the TRBC1 β-chain constant …; experiment: flow cytometry on cells; HPB-ALL TRBC1, HPB-ALL TRBC2 or HPB-ALL TCR KO cells; titration of IgG from 10 μg/ml in 2-fold dilutions, 30 min RT; anti-human IgG Alexa Fluor 647; conditions: one partner purified
Target sequence in this assay (P01850 whole entry, looked up, chain 1 of 2, the tested form may be a part): as the sequence (P01850 whole entry, chain 2 of 2, the tested form may be a part) above
Target sequence in this assay (P01848 whole entry, looked up, chain 2 of 2, the tested form may be a part): as the sequence (P01848 whole entry, chain 1 of 2, the tested form may be a part) above

[7] = biological target: T3, Recombinant, purified TRBC2 (soluble αβ …); experiment: not stated; bi-paratopic (avid) engagement allowed; Supplementary Fig. 12
[8] = biological target: TCR with the TRBC2 β-chain constant domain, on cells (Homo sapiens, UniProt P01848;A0A5B9); experiment: flow cytometry on cells; staining of TCR+ cell lines with HuJovi-1 or KFN; conditions: one partner purified
Chain of TCR with the TRBC2 β-chain constant domain, on cells (A0A5B9 whole entry, looked up, chain 1 of 2, the tested form may be a part): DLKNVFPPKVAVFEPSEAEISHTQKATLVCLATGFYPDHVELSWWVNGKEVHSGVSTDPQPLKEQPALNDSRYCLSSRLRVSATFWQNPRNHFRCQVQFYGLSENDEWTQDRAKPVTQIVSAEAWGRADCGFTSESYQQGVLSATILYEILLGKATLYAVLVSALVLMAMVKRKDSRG
Chain of TCR with the TRBC2 β-chain constant domain, on cells (P01848 whole entry, looked up, chain 2 of 2, the tested form may be a part): as the sequence (P01848 whole entry, chain 1 of 2, the tested form may be a part) above

[9] = biological target: T3, Recombinant, purified TRBC2 (soluble αβ …); experiment: SPR; Biacore T200; scFv-Fc captured on a Series S Protein A chip to 50 RU; TRBC1 or TRBC2 as analyte, 150 s contact, 500 s dissociation, 30 μl/min, 25 °C, HBS-P+ pH 7.4; 1:1 Langmuir model; conditions: both partners purified

Binder	Kd [3] [nM]	koff [3] [s⁻¹]	Kd [4] [nM]	koff [4] [s⁻¹]	further results
B1	–	–	–	–	Kd [1]: 1.6 nM; binding result [2]: binds
B2	426	0.0457	–	–	–
B3	13.8	0.00197	379	0.00194	–
B4	1440	0.125	582	0.045	–
B5	36.5	0.00524	395	0.166	–
B6	6.69	0.001	7480	0.585	–
B7	387	0.0689	999	0.125	–
B8	–	–	–	–	Kd [5]: 7.51 nM; koff [5]: 0.003 s⁻¹
B9	2.57	0.000618	–	–	binding result [6]: binds
B10	–	–	479	0.0386	fold affinity differential TRBC1:TRBC2 with bi-paratopic engagement [7]: > 100 fold; binding result [8]: binds
B11	–	–	–	–	Kd [9]: 1170 nM; koff [9]: 0.0995 s⁻¹
